Assay results as given in patent publication US10429300B2, “Surface plasmon resonance approach to monitor protein-ligand interactions” (The Johns Hopkins University, priority 2015, dated 2019).

B1: BomIV: α-like scorpion toxin from Buthus occitanus mardochei (protein)
chain: GRDAYIAQPENCVYECAKNSYCNDLCTKNGAKSGYCQWLGKYGNACWCEDLPDNVPIRIPGKCHF
B2: LqqV: Nav channel-selective α-scorpion toxin from Leiurus quinquestriatus hebraeus (protein)
chain: LKDGYIVDDKNCTFFCGRNAYCNDECKKKGGESGYCQWASPYGNACWCYKLPDRVSIKEKGRCN
B3: TsVII: β-scorpion toxin from the Brazilian scorpion Tityus serrulatus (protein, UniProt P15226 21-81, looked up)
Beta-mammal/insect toxin Ts1: KEGYLMDHEGCKLSCFIRPSGYCGRECGIKKGSSGYCAWPACYCYGLPNWVKVWDRATNKC
B4: AaHI: Nav channel-selective α-scorpion toxin from Androctonus australis hector (protein)
chain: KRDGYIVYPNNCVYHCVPPCDGLCKKNGGSSGSCSFLVPSGLACWCKDLPDNVPIKDTSRKCT

Key:
[1] = target: T1, rNav1.2a VSD II paddle peptide (V843A, SEQ ID NO: 2) (Rattus norvegicus, UniProt P04775, V843A); assay: SPR on immobilized rNav1.2a VSD II paddle peptide; assay type: binding; settings: 100 nM toxin; 500 fmol peptide
T1 construct: purchased ProteoGenix; host or cells: chemical synthesis (Fmoc solid phase)
T1 sequence (P04775 832-856 V843A): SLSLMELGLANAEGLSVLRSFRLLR
Method: SPR experiments were performed at 25° C. on a Biacore™ T200 instrument (GE Healthcare) using 150 mM NaCl, 3 mM EDTA, 0.005% surfactant P20, and 10 mM HEPES-NaOH, pH 7.4, for the coupling protocol or 50 mM phosphate, pH 7.2, as running buffer. Neutravidin (Thermo Fisher Scientific) was immobilized on CM5 sensor chips (GE Healthcare) using an amine coupling chemistry. All chemicals were obtained from Sigma-Aldrich. […] In all SPR experiments, nonspecific binding obtained in the control flow cell was subtracted from the signal obtained in the experimental flow cell. For qualitative binding analysis, toxins (100 nM in running buffer containing 0.1% BSA) were injected at a flow rate of 20 μl/min over 2 min. […] In between injections, the surface of the sensor chip was regenerated by injecting 1 M NaCl (15 s at 30 l/min). The bulk signal caused by refractive index differences between the flow buffer and the buffer containing the analyte was systematically excluded from the data-fitting process. It is worth noting that isolating a paddle motif (ligand) can induce conformational changes that can affect toxin (analyte) efficacy. […] Sensorgrams can reveal such ligand heterogeneity by displaying biphasic dissociation curves that cannot be fitted with the frequently used Langmuir model, which assumes a 1:1 stoichiometry of analyte to ligand. To account for a possible heterogeneity of surface sites, we calculated the rate constants and affinity equilibrium dissociation constants (KD) for AaHII by a fit to a heterogeneous ligand model incorporated into the Biacore T200 Evaluation™ software (v1.0). This model assumes the presence of two sites on the ligand that can bind analyte and can be described by these equations in which A represents the analyte and B1/B2 represents the heterogeneous ligand:
(A) Shown are the CD spectra of the rNav1.2a VSD II and IV paddle peptides used in this paper. […] (B) Representative association and dissociation kinetic curves obtained using SPR after the application of varying concentrations of AaHII (15-2,000 nM) over a sensor chip to which 50 fmol of the rNav1.2a VSD IV paddle peptide was linked. Toxin was applied after obtaining a steady baseline. Colored traces represent toxin binding obtained after subtraction of the signal from the control flow cell. […] Toxin concentrations are indicated on the right in a shade of gray corresponding to the sensorgram. (C) Representative SPR traces after the application of 100 nM KTX, AaHI, AaHII, LqqV, BomIV, TsVII, and CssIV over a sensor chip to which the rNav1.2a VSD II (left) or IV (right) paddle peptide (500 fmol) was linked. Toxin was applied after obtaining a steady baseline. (D) Binding capacities of 100 nM α-scorpion toxins AaHI, AaHII, LqqV, the α-like scorpion toxin BomIV, and the β-scorpion toxins TsVII and CssIV to the VSD II and IV paddle motifs using SPR (error bars represent±SEM). Y-axis represents the maximum RUs obtained after toxin application.
Next, the VSD IV peptide was fixed on SPR sensor chips by adding a K-linked biotin group to the C terminus, resulting in a 32-amino acid peptide altogether (SEQ ID NO: 4 which is mutated SEQ ID NO: 3 of FIG. 2A).

[2] = target: T2, rNav1.2a VSD IV paddle peptide (R1629A/L1630A, SEQ ID NO: 4) (Rattus norvegicus, UniProt P04775, L1630A/R1629A); assay: SPR on immobilized rNav1.2a VSD IV paddle peptide; assay type: binding; settings: 100 nM toxin; 500 fmol peptide
T2 construct: purchased ProteoGenix; host or cells: chemical synthesis (Fmoc solid phase)
T2 sequence (P04775 1605-1636 R1629A/L1630A): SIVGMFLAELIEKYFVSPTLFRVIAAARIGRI

[3] = system: rNav1.2a/Kv2.1 VSD IV paddle chimera; assay: Two-electrode voltage-clamp, rNav1.2a/Kv2.1 VSD IV paddle chimera in Xenopus oocytes; assay type: cell-based, rat; settings: 100 nM toxin; for depolarizing shift in midpoint (V1/2): Boltzmann fit, n=3
Chain of rNav1.2a/Kv2.1 VSD IV paddle chimera (P04775 1605-1636 limits assumed, stated change not applied): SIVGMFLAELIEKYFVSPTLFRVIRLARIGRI
Excerpt: (§1) The DNA sequence of rat (r)Nav1.2a (provided by A. Goldin, University of California, Irvine, Irvine, Calif.), rKv2.1 (provided by K. J. Swartz, National Institutes of Health), and the rNav1.2a/Kv2.1 VSD II or IV chimera was confirmed by automated DNA sequencing, and cRNA was synthesized using T7 polymerase (mMessage mMachine™ kit; Life Technologies) after linearizing the DNA with appropriate restriction enzymes. Channels were expressed in Xenopus oocytes (obtained from Xenopus 1) and studied after a 1-d incubation after cRNA injection (incubated at 17° C. in 96 mM NaCl, 2 mM KCl, 5 mM HEPES, 1 mM MgCl2, 1.8 mM CaCl2, and 50 μg/ml gentamycin, pH 7.6 with NaOH) using two-electrode voltage-clamp recording techniques (OC-725C; Warner Instruments) with a 150-μl recording chamber. Data were filtered at 4 kHz and digitized at 20 kHz using pClamp™ 10 software (Molecular Devices). Microelectrode resistances were 0.5-1.5 MΩ when filled with 3 M KCl. For Kv chimera channel experiments, the external recording solution contained (mM): 50 KCl, 50 NaCl, 5 HEPES, 1 MgCl2, and 0.3 CaCl2, pH 7.6 with NaOH. For rNav1.2a experiments, the external recording solution contained (mM): 100 NaCl, 5 HEPES, 1 MgCl2, and 1.8 CaCl2, pH 7.6 with NaOH. All experiments were performed at ˜22° C. Leak and background conductances, identified by blocking the channel with agitoxin-2 (provided by K. J. Swartz), have been subtracted for all of the Kv channel currents shown. […] Voltage-activation relationships were obtained by measuring tail currents for Kv channels or steady-state currents and calculating conductance for Nav channels, and a single Boltzmann function was fitted to the data according to I/Imax=[1c+cexp(−zF(Vc−cV1/2)/RT)]^−1, where I/Imax is the normalized tail-current amplitude, z is the equivalent charge, V1/2 is the half-activation voltage, F is Faraday's constant, R is the gas constant, and T is temperature in kelvin. For all channels, voltage-activation relationships were recorded in the absence and presence of toxin. The ratio of currents (I/I0) recorded in the presence (I) and absence (I0) of toxin was calculated for voltages typically ranging from −140 to 10 cmV, depending on the construct. […] The apparent equilibrium dissociation constant (apparent KD) for Kv channels was calculated according to KD=((1/(1c−cFu^1/4))c−c1)[toxin], assuming four independent toxin-binding sites per channel. Results are given as mean±SEM unless noted otherwise. Offline data analysis was performed using Clampfit 10™ (Molecular Devices), Origin 8.0™ (OriginLab), and Excel™ (Microsoft). All chemicals were obtained from Sigma-Aldrich.
(§2) Representative sodium currents were elicited by a 50-ms depolarization to a suitable membrane voltage (−20 to −15 mV) before (black) and after toxin addition (green) from a holding voltage of −90 mV. […] For each toxin, K^+ currents were elicited by a 300-ms depolarization to 0 mV from a holding voltage of −90 mV (tail voltage was −60 mV). […] For each toxin, K^+ currents (top) were elicited by a 300-ms depolarization near the foot of the voltage-activation curve (bottom) from a holding voltage of −90 mV.

WT rKv2.1 = assay: Two-electrode voltage-clamp, WT rKv2.1 in Xenopus oocytes; assay type: cell-based, rat; settings: 1 μM toxin
Excerpt: The DNA sequence of rat (r)Nav1.2a (provided by A. Goldin, University of California, Irvine, Irvine, Calif.), rKv2.1 (provided by K. J. Swartz, National Institutes of Health), and the rNav1.2a/Kv2.1 VSD II or IV chimera was confirmed by automated DNA sequencing, and cRNA was synthesized using T7 polymerase (mMessage mMachine™ kit; Life Technologies) after linearizing the DNA with appropriate restriction enzymes. Channels were expressed in Xenopus oocytes (obtained from Xenopus 1) and studied after a 1-d incubation after cRNA injection (incubated at 17° C. in 96 mM NaCl, 2 mM KCl, 5 mM HEPES, 1 mM MgCl2, 1.8 mM CaCl2, and 50 μg/ml gentamycin, pH 7.6 with NaOH) using two-electrode voltage-clamp recording techniques (OC-725C; Warner Instruments) with a 150-μl recording chamber. Data were filtered at 4 kHz and digitized at 20 kHz using pClamp™ 10 software (Molecular Devices). Microelectrode resistances were 0.5-1.5 MΩ when filled with 3 M KCl. For Kv chimera channel experiments, the external recording solution contained (mM): 50 KCl, 50 NaCl, 5 HEPES, 1 MgCl2, and 0.3 CaCl2, pH 7.6 with NaOH. For rNav1.2a experiments, the external recording solution contained (mM): 100 NaCl, 5 HEPES, 1 MgCl2, and 1.8 CaCl2, pH 7.6 with NaOH. All experiments were performed at ˜22° C. Leak and background conductances, identified by blocking the channel with agitoxin-2 (provided by K. J. Swartz), have been subtracted for all of the Kv channel currents shown. […] For all channels, voltage-activation relationships were recorded in the absence and presence of toxin. The ratio of currents (I/I0) recorded in the presence (I) and absence (I0) of toxin was calculated for voltages typically ranging from −140 to 10 cmV, depending on the construct. […] The apparent equilibrium dissociation constant (apparent KD) for Kv channels was calculated according to KD=((1/(1c−cFu^1/4))c−c1)[toxin], assuming four independent toxin-binding sites per channel. […]

rNav1.2a = assay: Two-electrode voltage-clamp, rNav1.2a expressed in Xenopus oocytes; assay type: cell-based, rat; settings: 100 nM toxin; for effect on rNav1.2a fast inactivation: 50-ms test pulse; for fast inactivation time constant (τ) after toxin application: single-exponential fit of current decay, n=3, mean±SEM
Excerpt: as §1, §2

[4] = system: rNav1.2a/Kv2.1 VSD IV paddle chimera; settings: cited from earlier work
[5] = target: rNav1.2a/Kv2.1 VSD II paddle chimera; settings: read-out: apparent KD, paddle motif in the domain II voltage sensor; cited from earlier work
Chain of rNav1.2a/Kv2.1 VSD II paddle chimera (P04775 832-856 limits assumed, change not shown): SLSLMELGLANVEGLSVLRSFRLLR

Row | Molecule | SPR binding to VSD II paddle peptide [1] | SPR binding to VSD IV paddle peptide [2] | K+ current inhibition of VSD IV chimera [3] | depolarizing shift in midpoint (V1/2) [3] [mV] | effect on WT Kv2.1 K+ current (WT rKv2.1) | effect on rNav1.2a fast inactivation (rNav1.2a) | fast inactivation time constant (τ) after toxin application (rNav1.2a) | binding to the VSD IV paddle, electrophysiological data from chimeras [4] | Kd [5] [nM]
1 | kaliotoxin (GVEINVKCSGSPQCLKPCKDAGMRFGKCMNRKCHCTPK) [KTX, negative control, reference compound] | did not bind | did not bind |  |  |  |  |  |  | 
2 | B1 | a response was not obtained |  | robust voltage-dependent K^+ current inhibition | ~26 | insensitive | inhibits rNav1.2a fast inactivation | 8.5±0.1 |  | 
3 | B2 | a response was not obtained |  | robust voltage-dependent K^+ current inhibition | > 50 | insensitive | inhibits rNav1.2a fast inactivation | 4.6±0.1 |  | 
4 | B3 | responded | responded |  |  |  |  |  | can also bind | 112 ± 12
5 | B4 | a response was not obtained |  | robust voltage-dependent K^+ current inhibition | ~15 | insensitive | inhibits rNav1.2a fast inactivation | 4.7±0.1 |  | 
